Key:
Experiment in all cases: Kd (EC50 corrected by depletion factor)
HNRNPAB = HNRNPAB (UniProt Q99729)
Outline: (§1)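 HEK293-FT lysate (2.5 mg protein/well) was treated with free RNA oligos (0 nM to 30 μM) for 1 h at 4°C, then with the same oligos on NHS-Sepharose beads for 30 min at 4°C. Bound proteins were quantified by label-free LC-MS/MS relative to the control. EC50 came from a four-parameter log-logistic fit, and Kd is EC50 times a protein-dependent depletion factor.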

WDR33 = biological target: T1, WDR33 (UniProt Q9C0J8)
T1 sequence: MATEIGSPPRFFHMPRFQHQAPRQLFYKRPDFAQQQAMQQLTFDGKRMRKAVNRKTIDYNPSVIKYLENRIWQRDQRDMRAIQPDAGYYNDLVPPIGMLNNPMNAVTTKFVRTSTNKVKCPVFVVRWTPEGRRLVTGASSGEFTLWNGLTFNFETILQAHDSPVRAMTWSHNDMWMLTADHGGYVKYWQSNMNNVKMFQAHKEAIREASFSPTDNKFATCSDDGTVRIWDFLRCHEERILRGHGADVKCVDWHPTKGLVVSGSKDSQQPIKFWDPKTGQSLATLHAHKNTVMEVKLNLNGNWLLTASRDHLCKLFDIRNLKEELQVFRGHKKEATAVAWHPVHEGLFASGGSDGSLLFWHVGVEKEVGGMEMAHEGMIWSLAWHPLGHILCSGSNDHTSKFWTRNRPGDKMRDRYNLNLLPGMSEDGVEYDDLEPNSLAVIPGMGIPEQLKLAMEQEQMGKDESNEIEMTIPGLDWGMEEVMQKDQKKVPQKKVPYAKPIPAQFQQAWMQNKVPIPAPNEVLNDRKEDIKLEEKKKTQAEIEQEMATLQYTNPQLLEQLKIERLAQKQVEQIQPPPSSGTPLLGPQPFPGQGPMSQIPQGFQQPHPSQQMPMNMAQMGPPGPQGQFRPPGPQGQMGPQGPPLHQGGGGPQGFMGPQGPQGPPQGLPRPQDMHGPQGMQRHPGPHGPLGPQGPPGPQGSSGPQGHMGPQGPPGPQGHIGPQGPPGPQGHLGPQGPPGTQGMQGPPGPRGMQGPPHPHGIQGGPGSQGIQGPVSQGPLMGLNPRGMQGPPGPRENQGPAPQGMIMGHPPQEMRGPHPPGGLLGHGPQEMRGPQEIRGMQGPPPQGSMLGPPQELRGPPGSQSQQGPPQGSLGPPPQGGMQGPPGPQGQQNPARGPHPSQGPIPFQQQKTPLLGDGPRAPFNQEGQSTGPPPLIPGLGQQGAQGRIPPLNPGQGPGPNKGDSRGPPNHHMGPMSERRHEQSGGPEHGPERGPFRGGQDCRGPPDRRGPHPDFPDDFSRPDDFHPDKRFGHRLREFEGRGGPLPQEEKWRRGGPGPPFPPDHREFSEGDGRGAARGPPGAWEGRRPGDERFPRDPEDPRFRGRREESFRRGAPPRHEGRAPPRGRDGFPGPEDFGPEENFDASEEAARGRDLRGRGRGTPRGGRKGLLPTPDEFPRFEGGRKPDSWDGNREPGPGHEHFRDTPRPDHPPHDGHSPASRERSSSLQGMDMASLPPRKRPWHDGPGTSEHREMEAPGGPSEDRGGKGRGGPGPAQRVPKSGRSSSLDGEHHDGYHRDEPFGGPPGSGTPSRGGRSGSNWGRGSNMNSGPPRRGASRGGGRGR
Outline: as §1

CSTF2 = biological target: T2, CSTF2 (UniProt P33240)
T2 sequence: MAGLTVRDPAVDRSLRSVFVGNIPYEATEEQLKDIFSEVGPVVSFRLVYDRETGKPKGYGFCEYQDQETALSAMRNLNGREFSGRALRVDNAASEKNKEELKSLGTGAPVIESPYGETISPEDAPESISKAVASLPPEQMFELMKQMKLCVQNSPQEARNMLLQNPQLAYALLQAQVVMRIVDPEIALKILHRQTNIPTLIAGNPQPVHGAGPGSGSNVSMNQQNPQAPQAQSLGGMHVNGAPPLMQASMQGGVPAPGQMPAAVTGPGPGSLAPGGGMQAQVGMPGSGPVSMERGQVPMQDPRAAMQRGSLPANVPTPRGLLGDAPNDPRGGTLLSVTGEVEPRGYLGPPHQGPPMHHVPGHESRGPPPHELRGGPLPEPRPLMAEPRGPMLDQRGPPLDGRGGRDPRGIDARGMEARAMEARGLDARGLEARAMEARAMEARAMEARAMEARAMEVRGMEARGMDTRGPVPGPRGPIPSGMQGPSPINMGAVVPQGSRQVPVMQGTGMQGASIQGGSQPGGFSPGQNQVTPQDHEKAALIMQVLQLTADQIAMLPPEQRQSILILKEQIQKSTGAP
Outline: as §1

HNRNPAB, sequence (Q99729 whole entry): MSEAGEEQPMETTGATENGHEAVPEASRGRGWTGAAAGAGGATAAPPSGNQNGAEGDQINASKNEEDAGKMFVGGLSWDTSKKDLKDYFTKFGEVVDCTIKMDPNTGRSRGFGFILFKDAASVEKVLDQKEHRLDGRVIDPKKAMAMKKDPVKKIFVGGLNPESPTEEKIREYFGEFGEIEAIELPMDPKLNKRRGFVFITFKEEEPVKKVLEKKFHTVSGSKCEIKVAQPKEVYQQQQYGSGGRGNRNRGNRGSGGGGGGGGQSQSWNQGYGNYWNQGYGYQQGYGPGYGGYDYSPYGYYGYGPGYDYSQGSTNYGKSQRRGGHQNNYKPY

Sequence | Kd (HNRNPAB) [nM] | Kd (WDR33) [nM] | Kd (CSTF2) [nM]
UAUUUAU | 2300 | 338 | 286
AAUAAA | 464 | 5.98 | 7.84

— the supplement of paper PMC6379048
